According to patent US20040154051A1 (SYNGENTA PARTICIPATIONS, published 2004):

Target: T1, NIM450 bait (first 450 amino acids of the NIM1 protein, LexA fusion) (Arabidopsis, UniProt P0A7C2 1-202; P93002 1-450)
T1 construct: The LexA fusion is stated outright only for the full-length bait
T1 sequence (looked up): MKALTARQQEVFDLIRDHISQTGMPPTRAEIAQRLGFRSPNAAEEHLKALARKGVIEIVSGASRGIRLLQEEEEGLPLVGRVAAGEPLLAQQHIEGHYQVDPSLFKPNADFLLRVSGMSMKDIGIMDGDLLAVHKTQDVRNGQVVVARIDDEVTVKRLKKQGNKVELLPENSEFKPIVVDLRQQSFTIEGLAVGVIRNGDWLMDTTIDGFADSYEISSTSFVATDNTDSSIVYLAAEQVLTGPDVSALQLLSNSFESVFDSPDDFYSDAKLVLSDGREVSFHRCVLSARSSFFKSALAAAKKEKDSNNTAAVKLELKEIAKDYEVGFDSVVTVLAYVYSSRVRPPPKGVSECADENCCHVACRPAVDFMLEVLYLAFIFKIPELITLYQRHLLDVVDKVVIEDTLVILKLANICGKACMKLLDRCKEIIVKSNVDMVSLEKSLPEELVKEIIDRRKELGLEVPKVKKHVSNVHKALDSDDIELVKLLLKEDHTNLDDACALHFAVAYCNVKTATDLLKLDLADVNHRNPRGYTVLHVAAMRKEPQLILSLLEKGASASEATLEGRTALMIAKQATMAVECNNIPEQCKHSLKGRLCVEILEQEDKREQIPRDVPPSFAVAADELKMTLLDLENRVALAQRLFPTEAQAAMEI
Assay: yeast two-hybrid (LexA bait, B42 prey; Leu2 and LacZ reporters)
Protocol: These baits are transformed into yeast strain EGY188, which contains a low sensitivity LexA operator fused to the Leu2 gene, and appropriate tests are performed to determine whether the NIM1 fusion proteins intrinsically activate expression of the yeast reporter genes. […] The library is transformed in combination with one of the three NIM1 baits above and a plasmid containing 2 LexA operators fused to LacZ as a secondary reporter. Approximately 10⁶ transformants are analyzed in screens with each bait, and individual clones that activate both the Leu2 and LacZ reporters are isolated and sequenced by standard procedures.

B1: NI16 clone (Arabidopsis NI16 cDNA clone from the pJG4-5 library, fused to the B42 transcriptional activation domain) (other, not shown: large carriers)
chain: MNNSLKKEERVEEDNGKSDGNRGKPSTEVVRTVTEEEVDEFFKILRRVHVATRTVAKVNGGVAEGELPSKKRKRSQNLGLRNSLDCNGVRDGEFDEINRVGLQGLGLDLNCKPEPDSVSLSL
notes: also called NI16 protein
binding result: no binding
